In publication PMC3419727, “Identifying the Hotspots on the Top Faces of WD40-Repeat Proteins from Their Primary Sequences by β-Bulges and DHSW Tetrads” (PLoS ONE, 2012):

B1: S. japonicus Tup11 WD40 domain (amino acids 301–630), wild type [S. japonicus] / C-terminal region of S. pombe Fep1 (amino acids 319–564) [S. pombe] (parent complex)
chain 1: ERTKESGQDWYAVYNEKMPKRMSIGLVHTLEHKSVVCCVRFSADGKYLATGCNRAAEIFDVQTGQKLATFEQENTNPETDLYIRSVAFSPDGKYLVTGAEDRQIRMWDIATGKVKHVFVGHEQDIYSLDYSRDGRYIVSGSGDHTARLWEAETGKCVLTLAIENGVTAVAFSPNNQFIAAGSLDQVIRVWSITGTLLKKLEGHRESVYSIAFSADGKYLASGSLDKTMRLWELKLDENAKTCSKASAISTYTGHSNFVLSVAISPNGKWAVSGSKDRSVQFWNLKTDELYLTFQGHKNSVISVCFSPDGKLFATGSGDLRARIWSIEDTA
chain 2: AAGEPDNNGKVYYSYGPTQEQSILPLPENKHEGLPPYQNEYVPNGIRANQVVYPGQLVAVGNDSSKQLSESTTSNTDNNGVATANQSNPLGMKFHLPPILPVGESVCLPPRTSAKPRIAEGIASLLNPEEPPSNSDKQPSMSNGPKSEVSPSQSQQAPLIQSSTSPVSLQFPPEVQGSNVDKRNYALNVLSQLRSQHDLMIQELHNLNQHIQQIDEWLRSSDNENMASEHIKSSTPAVVASGALQT

Variants of: B1
Assay: ITC; parent: -6.6; read off a plot

dG [kcal/mol]	Variant
~-6.2	chain 1 ERTKESGQDWYAVYNEKMPKRMSIGLVHTLEHKSVVACVRFSADGKYLATGCNRAAEIFDVQTGQKLATFEQENTNPETDLYIRSVAFSPDGKYLVTGAEDRQIRMWDIATGKVKHVFVGHEQDIYSLDYSRDGRYIVSGSGDHTARLWEAETGKCVLTLAIENGVTAVAFSPNNQFIAAGSLDQVIRVWSITGTLLKKLEGHRESVYSIAFSADGKYLASGSLDKTMRLWELKLDENAKTCSKASAISTYTGHSNFVLSVAISPNGKWAVSGSKDRSVQFWNLKTDELYLTFQGHKNSVISVCFSPDGKLFATGSGDLRARIWSIEDTA [chain 1 C37A]
~-5.9	chain 1 ERTKESGQDWYAVYNEKMPKRMSIGLVHTLEHKSVVCCVRFSADGKYLATGCNRAAEIFDVQTGQKLATFEQENTNPETDLYIRSVAFSPDGKYLVTGAEDRQIRMWDIATGKVKHVFVGHEQDIYSLDYSRDGRYIVSGSGDHTARLWEAETGKCVLTLAIENGVTAVAFSPNNQFIAAGSLDQVIRVWSITGTLLKKLEGHRESVYSIAFSADGKYLASGSLDKTMRLWELKLDENAKTCSKASAISTYTGHSNAVLSVAISPNGKWAVSGSKDRSVQFWNLKTDELYLTFQGHKNSVISVCFSPDGKLFATGSGDLRARIWSIEDTA [chain 1 F257A]
~-6	chain 1 ERTKESGQDWYAVYNEKMPKRMSIGLVHTLEHKSVVCCVRFSADGKYLATGCNRAAEIFDVQTGQKLATFEQENTNPETDLYIRSVAFSPDGKYLVTGAEDRQIRMWDIATGKVKHVFVGHEQDIYSLDYSRDGRYIVSGSGDHTARLWEAETGKCVLTLAIENGVTAVAFSPNNQFIAAGSLDQVIRVWSITGTLLKKLEGHRESVYSIAFSADGKYLASGSADKTMRLWELKLDENAKTCSKASAISTYTGHSNFVLSVAISPNGKWAVSGSKDRSVQFWNLKTDELYLTFQGHKNSVISVCFSPDGKLFATGSGDLRARIWSIEDTA [chain 1 L224A]
~-5.6	chain 1 ERTKESGQDWYAVYNEKMPKRMSIGLVHTLEHKSVVCCVRFSADGKYLATGCNRAAEIFDVQTGQKLATFEQENTNPETDLYIRSVAFSPDGKYLVTGAEDRQIRMWDIATGKVKHVFVGHEQDIYSLDYSRDGRYIVSGSGDHTARLWEAETGKCVLTLAIENGVTAVAFSPNNQFIAAGSLDQVIRVWSITGTLLKKLEGHRESVASIAFSADGKYLASGSLDKTMRLWELKLDENAKTCSKASAISTYTGHSNFVLSVAISPNGKWAVSGSKDRSVQFWNLKTDELYLTFQGHKNSVISVCFSPDGKLFATGSGDLRARIWSIEDTA [chain 1 Y208A]
~-6.4	chain 1 ERTKESGQDWYAVYNEKMPKRMSIGLVHTLEHKSVVCCVRFSADGKYLATGCNRAAEIFDVQTGQKLATFEQENTNPETDLYIRSVAFSPDGKYLVTGAEDRQIRMWDIATGKVKHVFVGHEQDIYSLDYSRDGRYIVSGSGDHTARLWEAETGKCVLTLAIENGVAAVAFSPNNQFIAAGSLDQVIRVWSITGTLLKKLEGHRESVYSIAFSADGKYLASGSLDKTMRLWELKLDENAKTCSKASAISTYTGHSNFVLSVAISPNGKWAVSGSKDRSVQFWNLKTDELYLTFQGHKNSVISVCFSPDGKLFATGSGDLRARIWSIEDTA [chain 1 T167A]
~-6.9	chain 1 ERTKESGQDWYAVYNEKMPKRMSIGLVHTLEHKSVVCCVRFSADGKYLATGCNRAAEIFDVQTGQKLATFEQENTNPETDLYIRSVAFSPDGKYLVTGAEDRQIRMWDIATGKVKHVFVGHEQAIYSLDYSRDGRYIVSGSGDHTARLWEAETGKCVLTLAIENGVTAVAFSPNNQFIAAGSLDQVIRVWSITGTLLKKLEGHRESVYSIAFSADGKYLASGSLDKTMRLWELKLDENAKTCSKASAISTYTGHSNFVLSVAISPNGKWAVSGSKDRSVQFWNLKTDELYLTFQGHKNSVISVCFSPDGKLFATGSGDLRARIWSIEDTA [chain 1 D124A]
~-5.4	chain 1 ERTKESGQDWYAVYNEKMPKRMSIGLVHTLEHKSVVCCVRFSADGKYLATGCNRAAEIFDVQTGQKLATFEQENTNPETDLYIRSVAFSPDGKYLVTGAEDRQIRMWDIATGKVKHVFVGHEQDIYSLDYSRDGRYIVSGSGDHTARLWEAETGKCVLTLAIENGVTAVAFSPNNQFIAAGSLDQVIRVWSITGTLLKKLEGHRESVYSIAFSADGKYLASGSLDKTMRLWELKLDENAKTCSKASAISTYTGHSNFVLSVAISPNGKWAVSGSKDRSVQFWNLKTDELYLTFQGHKNSVASVCFSPDGKLFATGSGDLRARIWSIEDTA [chain 1 I301A]
~-6.8	chain 1 ERTKESGQDWYAVYNEKMPKRMSIGLVHTLEHKSVVCCVRFSADGKYLATGCNRAAEIFDVQTGQKLATFEQENTNPETDLYIRSVAFSPDGKYLVTGAEDRQIRMWDIATGKVKHVFVGHEQDIYSLDYSRDGRYIVSGSGDHTARLWEAETGKCVLTLAIENGVTAVAFSPNNQFIAAGSSDQVIRVWSITGTLLKKLEGHRESVYSIAFSADGKYLASGSLDKTMRLWELKLDENAKTCSKASAISTYTGHSNFVLSVAISPNGKWAVSGSKDRSVQFWNLKTDELYLTFQGHKNSVISVCFSPDGKLFATGSGDLRARIWSIEDTA [chain 1 L183S]
~-5.6	chain 1 ERTKESGQDWYAVYNEKMPKRMSIGLVHTLEHKSVVCCVRFSADGKYLATGCNRAAEIFDVQTGQKLATFEQENTNPETDLYIRSVAFSPDGKYLVTGAEDRQIRMWDIATGKVKHVFVGHEQDIASLDYSRDGRYIVSGSGDHTARLWEAETGKCVLTLAIENGVTAVAFSPNNQFIAAGSLDQVIRVWSITGTLLKKLEGHRESVYSIAFSADGKYLASGSLDKTMRLWELKLDENAKTCSKASAISTYTGHSNFVLSVAISPNGKWAVSGSKDRSVQFWNLKTDELYLTFQGHKNSVISVCFSPDGKLFATGSGDLRARIWSIEDTA [chain 1 Y126A]
~-5.4	chain 1 ERTKESGQDWYAVYNEKMPKRMSIGLVHTLEHKSVVCCVRFSADGKYLATGCNRAAEIFDVQTGQKLATFEQENTNPETDLYIASVAFSPDGKYLVTGAEDRQIRMWDIATGKVKHVFVGHEQDIYSLDYSRDGRYIVSGSGDHTARLWEAETGKCVLTLAIENGVTAVAFSPNNQFIAAGSLDQVIRVWSITGTLLKKLEGHRESVYSIAFSADGKYLASGSLDKTMRLWELKLDENAKTCSKASAISTYTGHSNFVLSVAISPNGKWAVSGSKDRSVQFWNLKTDELYLTFQGHKNSVISVCFSPDGKLFATGSGDLRARIWSIEDTA [chain 1 R84A]
~-6.2	chain 1 ERTKESGQDWYAVYNEKMPKRMSIGLVHTLEHKSVVCCVRFSADGKYLATGCNRAAEIFDVQTGQKLATFEQENTNPETDLYIRSVAFSPDGKYLVTGAADRQIRMWDIATGKVKHVFVGHEQDIYSLDYSRDGRYIVSGSGDHTARLWEAETGKCVLTLAIENGVTAVAFSPNNQFIAAGSLDQVIRVWSITGTLLKKLEGHRESVYSIAFSADGKYLASGSLDKTMRLWELKLDENAKTCSKASAISTYTGHSNFVLSVAISPNGKWAVSGSKDRSVQFWNLKTDELYLTFQGHKNSVISVCFSPDGKLFATGSGDLRARIWSIEDTA [chain 1 E100A]
